# Experimental data from US20250304644A1, “PEPTIDES TRIPLE AGONISTS OF GIP, GLP-1 AND GLP-2” (BAINAN BIOTECH APS, priority 2021, published 2025).
# *1 amine or outer side, *2 acyl side, *3 side chain or, on linkers, in order; H or OH if unused. Where no end group is shown, it is not given here. Side-chain parts run from the residue outwards. [ ]: non-standard residue; d: D form. The star is where a group is joined. C18 diacid = O=C(O)CCCCCCCCCCCCCCCCC(=O)*; γGlu = O=C(O)[C@H](CCC(=O)[*:2])N[*:1]; AEEA = NCCOCCOCC(=O)O; Aib = CC(C)(N)C(=O)O
# T1: human SNP-tagged GLP-2R (Homo sapiens, UniProt O95838)
# T1 construct: expressed in transfected cells; host or cells: HEK293A
# T1 sequence (O95838 1-553): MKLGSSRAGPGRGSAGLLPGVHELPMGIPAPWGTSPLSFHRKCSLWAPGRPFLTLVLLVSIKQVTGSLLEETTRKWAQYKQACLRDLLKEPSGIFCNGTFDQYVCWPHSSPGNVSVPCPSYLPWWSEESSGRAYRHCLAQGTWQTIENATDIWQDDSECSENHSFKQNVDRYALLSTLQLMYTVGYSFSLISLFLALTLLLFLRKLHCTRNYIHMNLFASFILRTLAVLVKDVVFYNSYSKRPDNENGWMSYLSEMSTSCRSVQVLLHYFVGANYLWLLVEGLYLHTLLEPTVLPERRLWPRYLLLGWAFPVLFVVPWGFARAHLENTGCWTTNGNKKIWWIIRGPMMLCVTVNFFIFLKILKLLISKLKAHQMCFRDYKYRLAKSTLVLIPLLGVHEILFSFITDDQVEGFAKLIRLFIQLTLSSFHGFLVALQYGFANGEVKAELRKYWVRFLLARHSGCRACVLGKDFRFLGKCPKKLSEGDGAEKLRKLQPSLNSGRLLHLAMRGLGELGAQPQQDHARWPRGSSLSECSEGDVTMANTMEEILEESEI
# T2: Human N-terminally SNAP-tagged GIPR (human, UniProt P48546 22-466, SNAP tag labeled with Tag-Lite SNAP-Lumi4-Tb)
# T2 sequence (looked up): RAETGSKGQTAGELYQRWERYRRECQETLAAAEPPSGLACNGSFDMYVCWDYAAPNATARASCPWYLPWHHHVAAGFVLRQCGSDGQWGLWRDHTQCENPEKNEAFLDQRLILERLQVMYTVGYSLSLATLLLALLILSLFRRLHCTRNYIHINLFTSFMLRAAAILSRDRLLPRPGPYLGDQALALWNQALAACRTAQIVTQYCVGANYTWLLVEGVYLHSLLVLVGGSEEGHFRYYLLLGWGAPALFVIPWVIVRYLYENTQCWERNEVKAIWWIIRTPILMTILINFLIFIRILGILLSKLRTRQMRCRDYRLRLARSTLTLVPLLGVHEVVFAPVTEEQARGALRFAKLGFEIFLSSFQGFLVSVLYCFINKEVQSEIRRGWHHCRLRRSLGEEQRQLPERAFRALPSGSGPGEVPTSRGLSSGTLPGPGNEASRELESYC
# T3: human GLP-2R (glucagon-like peptide-2 receptor) (human, UniProt O95838 1-553)
# T3 sequence (looked up): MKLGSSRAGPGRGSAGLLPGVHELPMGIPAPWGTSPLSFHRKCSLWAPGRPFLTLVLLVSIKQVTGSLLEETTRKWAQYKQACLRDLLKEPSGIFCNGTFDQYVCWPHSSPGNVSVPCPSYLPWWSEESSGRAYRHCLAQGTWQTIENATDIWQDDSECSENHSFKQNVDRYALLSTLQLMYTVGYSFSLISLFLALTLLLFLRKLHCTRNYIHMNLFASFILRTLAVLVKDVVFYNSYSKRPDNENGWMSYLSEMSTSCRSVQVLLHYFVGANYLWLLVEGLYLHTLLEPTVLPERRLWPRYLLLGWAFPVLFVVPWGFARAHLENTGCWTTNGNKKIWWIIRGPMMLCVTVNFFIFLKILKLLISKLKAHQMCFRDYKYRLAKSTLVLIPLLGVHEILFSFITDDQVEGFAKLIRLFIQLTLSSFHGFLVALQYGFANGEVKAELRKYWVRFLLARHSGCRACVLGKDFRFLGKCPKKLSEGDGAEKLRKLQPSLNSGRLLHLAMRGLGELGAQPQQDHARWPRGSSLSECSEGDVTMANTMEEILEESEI
# T4: human GIPR (glucose-dependent insulinotropic polypeptide receptor) (human, UniProt P48546 22-466)
# T4 sequence (looked up): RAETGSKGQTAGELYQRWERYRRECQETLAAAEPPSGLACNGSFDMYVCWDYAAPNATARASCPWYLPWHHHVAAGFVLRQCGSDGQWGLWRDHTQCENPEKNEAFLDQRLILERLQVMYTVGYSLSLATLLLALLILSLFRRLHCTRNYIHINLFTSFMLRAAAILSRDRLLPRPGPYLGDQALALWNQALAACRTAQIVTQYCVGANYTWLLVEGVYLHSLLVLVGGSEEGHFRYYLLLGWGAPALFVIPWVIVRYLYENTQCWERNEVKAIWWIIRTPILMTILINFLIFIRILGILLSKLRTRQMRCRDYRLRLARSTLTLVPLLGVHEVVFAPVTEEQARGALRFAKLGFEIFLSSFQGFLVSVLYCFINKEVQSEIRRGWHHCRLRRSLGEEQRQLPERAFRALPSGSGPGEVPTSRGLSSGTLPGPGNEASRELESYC
# Experiments:
# human SNP-tagged GLP-2R = target: T1, human SNP-tagged GLP-2R; assay: Receptor internalization assay, HEK293A cells expressing human SNAP-tagged GLP-2R; assay type: cell-based; conditions: AUC of sigmoid curves up to 1 μM; 60 minutes at 37° C.
# [1] = target: T2, Human N-terminally SNAP-tagged GIPR; assay: cell-based or functional assay
# [2] = target: human GLP-1R (glucagon-like peptide-1 receptor) (human, UniProt P43220 24-463); assay: cell-based or functional assay
# [3] = target: T3, human GLP-2R (glucagon-like peptide-2 …); assay: cell-based or functional assay
# [4] = target: T4, human GIPR (glucose-dependent …); assay: cell-based or functional assay
Molecule,Absolute hGLP-2R internalization (AUC) (human SNP-tagged GLP-2R),Absolute hGIPR internalization (AUC) [1] [AUC],EC50 (nM) GLP-1R [2] [nM],Efficacy GLP-1R [2],logEC50 GLP-1R [2],EC50 (nM) GLP-2R [3] [nM],Efficacy GLP-2R [3],logEC50 GLP-2R [3],Relative hGIPR internalization (%) [1] [%],EC50 (nM) GIPR [4] [nM],Efficacy GIPR [4],pEC50 GIPR [4]
"hGLP-1: native human glucagon-like peptide-1, endogenous GLP-1R ligand; which form (1-37, 7-36, 7-37) not stated [reference compound]",48.6,,,,,,,,,,,
"HXDGTFISDYSTILDNLAARDFINWLIQTKITK (Aib at position 2; K33 acylated with C10, K(C10); C-terminal amide (-NH2)) [Compound 1]",,5.3,,,,,,,,,,
HADGTFTSDYSTILDKLAARDFINWLIQTKGKKNDWKHNITQK([AEEA-AEEA-γGlu-C18 diacid])-OH [Compound 26],,16.4,0.04,103,10.4,5.6,112,8.3,44,,,
HADGTFTSDYSTILDKK([AEEA-AEEA-γGlu-C18 diacid])AARDFINWLIQTKGKKNDWKHNITQ-OH [Compound 23],,1.2,0.05,105,10.3,3.5,95,8.5,3,7.08,82,8.2
HADGTFTSDYST[Aib]LDKLAARDFINWLIQTKGKKNDWKHNITQK([AEEA-AEEA-γGlu-C18 diacid])-OH [Compound 27],,9,0.05,115,10.3,3.2,85,8.5,24,0.562,124,9.3
HADGTFTSDYSTILDNLAAK([AEEA-AEEA-γGlu-C18 diacid])DFINWLIQTKGKK-OH (N-terminus assumed; SMILES CC[C@H](C)[C@H](NC(=O)[C@H](Cc1ccccc1)NC(=O)[C@H](CC(=O)O)NC(=O)[C@H](CCCCNC(=O)COCCOCCNC(=O)COCCOCCNC(=O)CC[C@H](NC(=O)CCCCCCCCCCCCCCCCC(=O)O)C(=O)O)NC(=O)[C@H](C)NC(=O)[C@H](C)NC(=O)[C@H](CC(C)C)NC(=O)[C@H](CC(N)=O)NC(=O)[C@H](CC(=O)O)NC(=O)[C@H](CC(C)C)NC(=O)[C@@H](NC(=O)[C@@H](NC(=O)[C@H](CO)NC(=O)[C@H](Cc1ccc(O)cc1)NC(=O)[C@H](CC(=O)O)NC(=O)[C@H](CO)NC(=O)[C@@H](NC(=O)[C@H](Cc1ccccc1)NC(=O)[C@@H](NC(=O)CNC(=O)[C@H](CC(=O)O)NC(=O)[C@H](C)NC(=O)[C@@H](N)Cc1c[nH]cn1)[C@@H](C)O)[C@@H](C)O)[C@@H](C)O)[C@@H](C)CC)C(=O)N[C@@H](CC(N)=O)C(=O)N[C@@H](Cc1c[nH]c2ccccc12)C(=O)N[C@@H](CC(C)C)C(=O)N[C@H](C(=O)N[C@@H](CCC(N)=O)C(=O)N[C@H](C(=O)N[C@@H](CCCCN)C(=O)NCC(=O)N[C@@H](CCCCN)C(=O)N[C@@H](CCCCN)C(=O)O)[C@@H](C)O)[C@@H](C)CC) [Compound 18],,2.1,0.06,112,10.2,,,,,,82,
HADGTFTSDYSTILDKLAARDFINWLIQTKGKKNDWK([AEEA-AEEA-γGlu-C18 diacid])HNITQ-OH [Compound 25],,13.1,0.05,116,10.3,7.9,117,8.1,35,0.398,107,9.4
HADGTFTSDYSTILDNLAARDFINWLIQTKGKK([γGlu-C18 diacid])-OH (N-terminus assumed; SMILES CC[C@H](C)[C@H](NC(=O)[C@H](Cc1ccccc1)NC(=O)[C@H](CC(=O)O)NC(=O)[C@H](CCCNC(=N)N)NC(=O)[C@H](C)NC(=O)[C@H](C)NC(=O)[C@H](CC(C)C)NC(=O)[C@H](CC(N)=O)NC(=O)[C@H](CC(=O)O)NC(=O)[C@H](CC(C)C)NC(=O)[C@@H](NC(=O)[C@@H](NC(=O)[C@H](CO)NC(=O)[C@H](Cc1ccc(O)cc1)NC(=O)[C@H](CC(=O)O)NC(=O)[C@H](CO)NC(=O)[C@@H](NC(=O)[C@H](Cc1ccccc1)NC(=O)[C@@H](NC(=O)CNC(=O)[C@H](CC(=O)O)NC(=O)[C@H](C)NC(=O)[C@@H](N)Cc1c[nH]cn1)[C@@H](C)O)[C@@H](C)O)[C@@H](C)O)[C@@H](C)CC)C(=O)N[C@@H](CC(N)=O)C(=O)N[C@@H](Cc1c[nH]c2ccccc12)C(=O)N[C@@H](CC(C)C)C(=O)N[C@H](C(=O)N[C@@H](CCC(N)=O)C(=O)N[C@H](C(=O)N[C@@H](CCCCN)C(=O)NCC(=O)N[C@@H](CCCCN)C(=O)N[C@@H](CCCCNC(=O)CC[C@H](NC(=O)CCCCCCCCCCCCCCCCC(=O)O)C(=O)O)C(=O)O)[C@@H](C)O)[C@@H](C)CC) [Compound 19],,8.9,0.06,106,10.2,31.6,94,7.5,24,,92,9.2
HADGTFTSDYSTILDKLAARDFINWLIQTKGKK([AEEA-AEEA-γGlu-C18 diacid])NDWKHNITQ-OH [Compound 24],,15,0.05,113,10.3,,,,41,0.398,96,9.4
